Measured values published in article PMC6150531.

Molecular target: ALG-2 (human (endogenous in HeLa)) (UniProt O75340)
Sequence of UniProt O75340 (O75340 whole entry): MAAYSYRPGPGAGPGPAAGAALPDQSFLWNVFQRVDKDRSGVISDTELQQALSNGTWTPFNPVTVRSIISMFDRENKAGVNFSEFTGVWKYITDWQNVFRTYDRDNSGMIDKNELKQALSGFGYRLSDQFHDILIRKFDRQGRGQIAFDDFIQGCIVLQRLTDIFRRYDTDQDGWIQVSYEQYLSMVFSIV

Binder: QGPPYPTYPGYPGYCQ [ALIX peptide]
- viability of EGFP-expressing HeLa cells 1 hour after 50 uM digitonin in the presence of 10 uM peptide (about 60% without the peptide): 37 % viability
